T1: hFcgRIIb (human, UniProt P31994 43-217)
T1 construct: extracellular domain; also called human FcγRIIb
T1 sequence (looked up): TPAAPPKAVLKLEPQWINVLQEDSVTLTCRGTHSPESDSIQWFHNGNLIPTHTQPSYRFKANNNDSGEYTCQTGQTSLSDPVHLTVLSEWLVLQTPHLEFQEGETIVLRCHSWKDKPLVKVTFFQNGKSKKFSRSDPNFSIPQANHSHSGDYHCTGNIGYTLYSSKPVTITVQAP

T2: hFcgRIIaH (human, UniProt P12318 34-217)
T2 construct: extracellular domain; also called human FcγRIIa type H (H131)
T2 sequence (looked up): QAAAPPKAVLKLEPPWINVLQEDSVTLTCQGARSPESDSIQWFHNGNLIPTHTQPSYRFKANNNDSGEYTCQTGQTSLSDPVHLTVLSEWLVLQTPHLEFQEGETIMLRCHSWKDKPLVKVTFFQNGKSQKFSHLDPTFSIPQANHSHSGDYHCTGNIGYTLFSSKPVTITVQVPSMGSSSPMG

T3: hFcgRIIaR (human, UniProt P12318 34-217)
T3 construct: extracellular domain; also called human FcγRIIa type R (R131)
T3 sequence (looked up): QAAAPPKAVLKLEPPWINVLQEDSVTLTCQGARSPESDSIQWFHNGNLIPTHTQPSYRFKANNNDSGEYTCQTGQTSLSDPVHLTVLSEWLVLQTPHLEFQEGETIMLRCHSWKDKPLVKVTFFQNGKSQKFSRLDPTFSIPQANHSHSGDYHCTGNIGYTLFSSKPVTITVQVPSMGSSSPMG


Experiments:
hFcgRIa [1] = target: T4, hFcgRIa (human, UniProt P12314 16-292); assay: SPR 25C; relative to A375-G1T3/B167-Lamlib;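 note: SPR with antibody captured on an anti-human Fab-lambda chip, human FcγR analyte at 8 nM for FcγRIa or 1000 nM for the others, pH 7.4, FcγR RU per captured antibody unit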
T4 construct: extracellular domain; also called human FcγRIa; FcγRI
T4 sequence (P12314 16-292): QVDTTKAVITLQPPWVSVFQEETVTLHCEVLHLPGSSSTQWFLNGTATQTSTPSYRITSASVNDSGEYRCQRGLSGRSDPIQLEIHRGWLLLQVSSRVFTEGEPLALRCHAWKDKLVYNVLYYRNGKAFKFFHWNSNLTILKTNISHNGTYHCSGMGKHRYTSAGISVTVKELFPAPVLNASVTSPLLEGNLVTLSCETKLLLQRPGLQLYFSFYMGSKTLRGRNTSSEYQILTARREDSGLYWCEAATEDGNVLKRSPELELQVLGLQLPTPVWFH
Protocol: (§1) Biacore T200 (GE Healthcare) was used to evaluate the binding activity to the respective human Fcγ receptor (hereafter referred to as FcγR). Measurement was performed at 25° C. using 50 mM phosphate, 150 mM NaCl, 0.05 w/v %-P20, pH 7.4 as buffer. About 1000 RU of antibody was captured using a sensor chip immobilized with CaptureSelect™ Human Fab-lambda Kinetics Biotin Conjugate (Thermo Fisher Scientific) as a molecule for ligand capturing. Human FcγR was diluted to 8 nM for FcγRIa and 1000 nM for other FcγR in the measurement buffer, and it was interacted to the captured antibody. The binding activity of each antibody to FcγR was assessed by calculating the binding amount of FcγR (RU) per unit amount of antibody using Biacore T200 Evaluation Software 2.0.

hFcgRIIIaV [2] = target: T5, hFcgRIIIaV (human, UniProt P08637 17-208); assay: SPR 25C; relative to A375-G1T3/B167-Lamlib;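 note: SPR with antibody captured on an anti-human Fab-lambda chip, human FcγR analyte at 8 nM for FcγRIa or 1000 nM for the others, pH 7.4, FcγR RU per captured antibody unit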
T5 construct: extracellular domain; also called human FcγRIIIa allotype V158
T5 sequence (P08637 17-208 F176V): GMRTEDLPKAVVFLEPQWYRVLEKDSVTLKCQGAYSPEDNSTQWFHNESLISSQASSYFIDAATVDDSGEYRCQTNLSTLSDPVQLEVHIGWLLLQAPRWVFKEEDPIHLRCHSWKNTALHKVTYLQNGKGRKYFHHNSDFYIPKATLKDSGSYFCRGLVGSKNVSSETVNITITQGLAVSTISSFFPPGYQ
Protocol: as §1

hFcgRIIIaF [3] = target: T6, hFcgRIIIaF (human, UniProt P08637 17-208); assay: SPR 25C; relative to A375-G1T3/B167-Lamlib;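 note: SPR with antibody captured on an anti-human Fab-lambda chip, human FcγR analyte at 8 nM for FcγRIa or 1000 nM for the others, pH 7.4, FcγR RU per captured antibody unit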
T6 construct: extracellular domain; also called human FcγRIIIa allotype F158
T6 sequence (P08637 17-208): as the sequence (P08637 17-208 F176V) above, with V160F counted along it
Protocol: as §1

hFcgRIIb [4] = target: T1, hFcgRIIb; assay: SPR 25C; relative to A375-G1T3/B167-Lamlib;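 note: SPR with antibody captured on an anti-human Fab-lambda chip, human FcγR analyte at 8 nM for FcγRIa or 1000 nM for the others, pH 7.4, FcγR RU per captured antibody unit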
Protocol: as §1

hFcgRIIaH [5] = target: T2, hFcgRIIaH; assay: SPR 25C; relative to A375-G1T3/B167-Lamlib
Protocol: as §1

hFcgRIIaR [6] = target: T3, hFcgRIIaR; assay: SPR 25C; relative to A375-G1T3/B167-Lamlib
Protocol: as §1

human FcRn = human FcRn (human, UniProt P55899 24-290; P61769 21-119, limits assumed); assay: SPR 25C pH 6.0, steady state;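 note: antibody captured on chip via anti-human Fab-lambda ligand, human FcRn injected as analyte in 50 mM phosphate buffer with 150 mM NaCl and P20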
Protocol: Biacore T200 (GE Healthcare) was used to assess the binding activity to human FcRn. Measurement was performed at 25° C. using 50 mM phosphate, 150 mM NaCl, 0.05 w/v %-P20, pH 6.0 as buffer. […] About 400 RU of antibody was captured using a sensor chip immobilized with CaptureSelect™ Human Fab-lambda Kinetics Biotin Conjugate (Thermo Fisher Scientific) as a molecule for ligand capturing, followed by the binding of human FcRn diluted in measuring buffer. The activity of the respective antibodies to bind FcRn was assessed by calculating KD (mol/L) by the steady-state model using Biacore T200 Evaluation Software 2.0.

hFcgRIa [7] = target: T4, hFcgRIa; assay: SPR 25C
Protocol: as §1

hFcgRIIIaV [8] = target: T5, hFcgRIIIaV; assay: SPR 25C
Protocol: as §1

hFcgRIIIaF [9] = target: T6, hFcgRIIIaF; assay: SPR 25C
Protocol: as §1

hFcgRIIb [10] = target: T1, hFcgRIIb; assay: SPR 25C
Protocol: as §1

hFcgRIIaH [11] = target: T2, hFcgRIIaH; assay: SPR 25C
Protocol: as §1

hFcgRIIaR [12] = target: T3, hFcgRIIaR; assay: SPR 25C
Protocol: as §1
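Throughout, for binding per 1RU of antibody: biacore SPR with antibody captured on an anti-human Fab lambda chip, human FcγR injected at 1000 nM (FcγRIa at 8 nM) in pH 7.4 phosphate buffer.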

| Binder | relative binding amount (hFcgRIa [1]) | relative binding amount (hFcgRIIIaV [2]) | relative binding amount (hFcgRIIIaF [3]) | relative binding amount (hFcgRIIb [4]) | relative binding amount (hFcgRIIaH [5]) | relative binding amount (hFcgRIIaR [6]) | Kd (human FcRn) [nM] | binding per 1RU of antibody (hFcgRIa [7]) [RU] | binding per 1RU of antibody (hFcgRIIIaV [8]) [RU] | binding per 1RU of antibody (hFcgRIIIaF [9]) [RU] | binding per 1RU of antibody (hFcgRIIb [10]) [RU] | binding per 1RU of antibody (hFcgRIIaH [11]) [RU] | binding per 1RU of antibody (hFcgRIIaR [12]) [RU] |
| --- | --- | --- | --- | --- | --- | --- | --- | --- | --- | --- | --- | --- | --- |
| A375-SCF027/B167-Lamlib (antibody, human IgG1, lambda, also called A375-SCF027/B167-LamLab) heavy: EVQLVESGGGLVKPGGSLRLSCAASGFTFSTFTMNWVRQAPGKGLEWVSSISSKSTYIEYADSFKVRFTISRDNAKNSLYLQMNSLRAEDTAVYYCARYGAKNFLNWVFDYWGQGTLVTVSSASTKGPSVFPLAPSSKSTSGGTAALGCLVKDYFPEPVTVSWNSGALTSGVHTFPAVLQSSGLYSLSSVVTVPSSSLGTQTYICNVNHKPSNTKVDKKVEPKSCDKTHTCPPCPAPEYLGGDSVFLFPPKPKDVLMISRTPEVTCVVIDVSHEDPEVKFNWYVDGVEVHNAKTKPREEQYNSTYRVVSVLPVLHQDWLNGKEYKCKVSNKALPKPIEKTISKAKGQRREPQVYTLPPSREEMTKNQVSLTCLVKGFYPSDIAVEWESNGQPENNYKTTPPVLDSDGSFFLYSKLTVKKSRWQQGNVFSCSVMHEALHNHYTQKSLSLSP light: QSALTQPPSASGSPGQTVTISCTGTRYDVGYYEYVSWYQQHPGKAPKLMIYETSKRLSGVPDRFSGSKSGNTASLTVSGLQAEDEADYYCSSYRYEHQVSFGGGTKLTVLGQPKAAPSVTLFPPSSEELQANKATLVCLISDFYPGAVTVAWKADSSPVKAGVETTTPSKQSNNKYAASSYLSLTPEQWKSHRSYSCQVTHEGSTVEKTVAPTECS | 0.05 | -0.01 | -0.02 | 6.99 | 0.06 | 0.12 | 1330 | 0.0044 | -0.0006 | -0.0005 | 0.0766 | 0.0031 | 0.0058 |
| A375-SCF028/B167-Lamlib (antibody, human IgG1, lambda) heavy: EVQLVESGGGLVKPGGSLRLSCAASGFTFSTFTMNWVRQAPGKGLEWVSSISSKSTYIEYADSFKVRFTISRDNAKNSLYLQMNSLRAEDTAVYYCARYGAKNFLNWVFDYWGQGTLVTVSSASTKGPSVFPLAPSSKSTSGGTAALGCLVKDYFPEPVTVSWNSGALTSGVHTFPAVLQSSGLYSLSSVVTVPSSSLGTQTYICNVNHKPSNTKVDKKVEPKSCDKTHTCPPCPAPEYLGDDSVFLFPPKPKDVLMISRTPEVTCVVVDVSHEDPEVKFNWYVDGVEVHNAKTKPREEQYNSTYRVVSVLPVLHQDWLNGKEYKCKVSNKALPKPIEKTISKAKGQRREPQVYTLPPSREEMTKNQVSLTCLVKGFYPSDIAVEWESNGQPENNYKTTPPVLDSDGSFFLYSKLTVKKSRWQQGNVFSCSVMHEALHNHYTQKSLSLSP light: QSALTQPPSASGSPGQTVTISCTGTRYDVGYYEYVSWYQQHPGKAPKLMIYETSKRLSGVPDRFSGSKSGNTASLTVSGLQAEDEADYYCSSYRYEHQVSFGGGTKLTVLGQPKAAPSVTLFPPSSEELQANKATLVCLISDFYPGAVTVAWKADSSPVKAGVETTTPSKQSNNKYAASSYLSLTPEQWKSHRSYSCQVTHEGSTVEKTVAPTECS | 0.03 | -0.01 | -0.04 | 9.08 | 0.18 | 0.64 | 1270 | 0.0027 | -0.001 | -0.0009 | 0.0995 | 0.0101 | 0.0299 |

Stronger by Kd (human FcRn), values ahead:

| relative binding amount (hFcgRIa [1]) | relative binding amount (hFcgRIIIaV [2]) | relative binding amount (hFcgRIIIaF [3]) | relative binding amount (hFcgRIIb [4]) | relative binding amount (hFcgRIIaH [5]) | relative binding amount (hFcgRIIaR [6]) | Kd (human FcRn) [nM] | binding per 1RU of antibody (hFcgRIa [7]) [RU] | binding per 1RU of antibody (hFcgRIIIaV [8]) [RU] | binding per 1RU of antibody (hFcgRIIIaF [9]) [RU] | binding per 1RU of antibody (hFcgRIIb [10]) [RU] | binding per 1RU of antibody (hFcgRIIaH [11]) [RU] | binding per 1RU of antibody (hFcgRIIaR [12]) [RU] | Binder |
| --- | --- | --- | --- | --- | --- | --- | --- | --- | --- | --- | --- | --- | --- |
| 0.03 | 0.02 | 0.04 | 4.67 | 0.91 | 1.12 | 1130 | 0.0021 | 0.0016 | 0.0009 | 0.0511 | 0.0514 | 0.0518 | A375-SCF025a/B167-Lamlib (antibody, human IgG1, lambda) heavy: EVQLVESGGGLVKPGGSLRLSCAASGFTFSTFTMNWVRQAPGKGLEWVSSISSKSTYIEYADSFKVRFTISRDNAKNSLYLQMNSLRAEDTAVYYCARYGAKNFLNWVFDYWGQGTLVTVSSASTKGPSVFPLAPSSKSTSGGTAALGCLVKDYFPEPVTVSWNSGALTSGVHTFPAVLQSSGLYSLSSVVTVPSSSLGTQTYICNVNHKPSNTKVDKRVEPKSCDKTHTCPPCPAPELWNGPSVFLFPPKPKDTLMISRTPEVTCVVVDVSDEDPEVKFNWYVDGVEVHNAKTKPREELYNSTYRVVSVLTVLHQDWLNGKEYKCKVSNTALPKPIEKTISKAKGQRREPQVYTLPPSREEMTKNQVSLTCLVKGFYPSDIAVEWESNGQPENNYKTTPPVLDSDGSFFLYSKLTVKKSRWQQGNVFSCSVMHEALHNHYTQKSLSLSP light: QSALTQPPSASGSPGQTVTISCTGTRYDVGYYEYVSWYQQHPGKAPKLMIYETSKRLSGVPDRFSGSKSGNTASLTVSGLQAEDEADYYCSSYRYEHQVSFGGGTKLTVLGQPKAAPSVTLFPPSSEELQANKATLVCLISDFYPGAVTVAWKADSSPVKAGVETTTPSKQSNNKYAASSYLSLTPEQWKSHRSYSCQVTHEGSTVEKTVAPTECS |
| 0.03 | 0.02 | 0.06 | 4.67 | 0.91 | 1.12 | 1100 | 0.0022 | 0.0014 | 0.0012 | 0.0512 | 0.0514 | 0.0519 | A375-SCF025/B167-Lamlib (antibody, human IgG1, lambda) heavy: EVQLVESGGGLVKPGGSLRLSCAASGFTFSTFTMNWVRQAPGKGLEWVSSISSKSTYIEYADSFKVRFTISRDNAKNSLYLQMNSLRAEDTAVYYCARYGAKNFLNWVFDYWGQGTLVTVSSASTKGPSVFPLAPSSKSTSGGTAALGCLVKDYFPEPVTVSWNSGALTSGVHTFPAVLQSSGLYSLSSVVTVPSSSLGTQTYICNVNHKPSNTKVDKKVEPKSCDKTHTCPPCPAPELWNGPSVFLFPPKPKDTLMISRTPEVTCVVVDVSDEDPEVKFNWYVDGVEVHNAKTKPREELYNSTYRVVSVLTVLHQDWLNGKEYKCKVSNTALPKPIEKTISKAKGQRREPQVYTLPPSREEMTKNQVSLTCLVKGFYPSDIAVEWESNGQPENNYKTTPPVLDSDGSFFLYSKLTVKKSRWQQGNVFSCSVMHEALHNHYTQKSLSLSP light: QSALTQPPSASGSPGQTVTISCTGTRYDVGYYEYVSWYQQHPGKAPKLMIYETSKRLSGVPDRFSGSKSGNTASLTVSGLQAEDEADYYCSSYRYEHQVSFGGGTKLTVLGQPKAAPSVTLFPPSSEELQANKATLVCLISDFYPGAVTVAWKADSSPVKAGVETTTPSKQSNNKYAASSYLSLTPEQWKSHRSYSCQVTHEGSTVEKTVAPTECS |
